Residue numbers refer to the chain shown, from its start. Names and notes keep the numbering of the source.
B1: GPC3 ERY22-B (bispecific antibody, human IgG1, kappa, L234A L235A, N297A)
heavy 1: DIVMTQSPLSLPVTPGEPASISCRSSQSLVHSNRNTYLHWYQQKPGQAPRLLIYKVSNRFSGVPDRFSGSGSGTDFTLKISRVEAEDVGVYYCSQNTHVPPTFGQGTKLEIKSSASTKGPSVFPLAPSSKSTSGGTAALGCLVKDYFPEPVTVSWNSGALTSGVHTFPAVLQSSGLYSLSSVVTVPSSSLGTQTYICNVNHKPSNTKVDKKVEPKSCDKTHTCPPCPAPEAAGGPSVFLFPPKPKDTLMISRTPEVTCVVVDVSHEDPEVKFNWYVDGVEVHNAKTKPREEQYASTYRVVSVLTVLHQDWLNGKEYKCKVSNKALPAPIEKTISKAKGQPREPQVCTLPPSRDELTKNQVSLWCLVKGFYPSDIAVEWESNGQPENNYKTTPPVLDSDGSFFLYSKLTVDKSRWQQGNVFSCSVMHEALHNHYTQKSLSLSPHHHHHHHH
light 1: QVQLVQSGAEVKKPGASVKVSCKASGYTFTDYEMHWIRQPPGQGLEWIGAIDPKTGDTAYSQKFKGRVTLTADKSTSTAYMELSSLTSEDTAVYYCTRFYSYTYWGQGTLVTVSSASVAAPSVFIFPPSDEQLKSGTASVVCLLNNFYPREAKVQWKVDNALQSGNSQESVTEQDSKDSTYSLSSTLTLSKADYEKHKVYACEVTHQGLSSPVTKSFNRGEC
heavy 2: QVQLQQWGAGLLKPSETLSLTCAVYGGSFSGYYWSWIRQSPEKGLEWIGEINHGGYVTYNPSLESRVTISVDTSKNQFSLKLSSVTAADTAVYYCARDYGPGNYDWYFDLWGRGTLVTVSSASTKGPSVFPLAPSSKSTSGGTAALGCLVKDYFPEPVTVSWNSGALTSGVHTFPAVLQSSGLYSLSSVVTVPSSSLGTQTYICNVNHKPSNTKVDKKVEPKSCDKTHTCPPCPAPEAAGGPSVFLFPPKPKDTLMISRTPEVTCVVVDVSHEDPEVKFNWYVDGVEVHNAKTKPREEQYASTYRVVSVLTVLHQDWLNGKEYKCKVSNKALPAPIEKTISKAKGQPREPQVYTLPPSRCELTKNQVSLSCAVKGFYPSDIAVEWESNGQPENNYKTTPPVLDSDGSFFLVSKLTVDKSRWQQGNVFSCSVMHEALHNHYTQKSLSLSP
light 2: not shown
B2: GPC3 ERY22-dBBDu_183/L063 (bispecific antibody, human IgG1, kappa, L234A L235A, N297A)
heavy 1: B1 heavy 1
light 1: B1 light 1
heavy 2: QVQLVESGGGLVQPGRSLRLSCAASGFTFSNAWMHWVRQAPGKGLEWVAQIKDKGNAYAAYYAPSVKGRFTISRDDSKNSIYLQMNSLKTEDTAVYYCHYVHYASASTVLPAFGVDAWGQGTTVTVSSASTKGPSVFPLAPSSKSTSGGTAALGCLVKDYFPEPVTVSWNSGALTSGVHTFPAVLQSSGLYSLSSVVTVPSSSLGTQTYICNVNHKPSNTKVDKKVEPKSCDKTHTCPPCPAPEAAGGPSVFLFPPKPKDTLMISRTPEVTCVVVDVSHEDPEVKFNWYVDGVEVHNAKTKPREEQYASTYRVVSVLTVLHQDWLNGKEYKCKVSNKALPAPIEKTISKAKGQPREPQVYTLPPSRCELTKNQVSLSCAVKGFYPSDIAVEWESNGQPENNYKTTPPVLDSDGSFFLVSKLTVDKSRWQQGNVFSCSVMHEALHNHYTQKSLSLSPDYKDDDDK
light 2: DIVMTQSPLSLPVTPGEPASISCRSSQELVHTNRHTYLHWYQQKPGQAPRLLIYKVSNRFPGVPDRFSGSGSGTDFTLKISRVEAEDVGVYYCAQGTQVPFTFGQGTKLEIKRTVAAPSVFIFPPSDEQLKSGTASVVCLLNNFYPREAKVQWKVDNALQSGNSQESVTEQDSKDSTYSLSSTLTLSKADYEKHKVYACEVTHQGLSSPVTKSFNRGEC
B3: CE115HA000 Y100A one-arm antibody (antibody, human IgG1, kappa, L234A L235A, N297A, name in Kabat numbering)
heavy: QVQLVESGGGVVQPGRSLRLSCAASGFTFSNAWMHWVRQAPGKGLEWVAQIKAKSNNYATYYAESVKGRFTISRDDSKNSLYLQMNSLKTEDTAVYYCRYVHYGAAYGVDAWGQGTTVTVSSASTKGPSVFPLAPSSKSTSGGTAALGCLVKDYFPEPVTVSWNSGALTSGVHTFPAVLQSSGLYSLSSVVTVPSSSLGTQTYICNVNHKPSNTKVDKKVEPKSCDKTHTCPPCPAPEAAGGPSVFLFPPKPKDTLMISRTPEVTCVVVDVSHEDPEVKFNWYVDGVEVHNAKTKPREEQYASTYRVVSVLTVLHQDWLNGKEYKCKVSNKALPAPIEKTISKAKGQPREPQVYTLPPSRCELTKNQVSLSCAVKGFYPSDIAVEWESNGQPENNYKTTPPVLDSDGSFFLVSKLTVDKSRWQQGNVFSCSVMHEALHNHYTQKSLSLSPDYKDDDDK
chain: EPKSSDKTHTCPPCPAPELLGGPSVFLFPPKPKDTLMISRTPEVTCVVVDVSHEDPEVKFNWYVDGVEVHNAKTKPREEQYNSTYRVVSVLTVLHQDWLNGKEYKCKVSNKALPAPIEKTISKAKGQPREPQVCTLPPSRDELTKNQVSLWCLVKGFYPSDIAVEWESNGQPENNYKTTPPVLDSDGSFFLYSKLTVDKSRWQQGNVFSCSVMHEALHNRYTQKSLSLSP
light: B2 light 2 with E28S, T32S, H35N, P61S, A94G, F101Y
notes: one-arm antibody
B4: CE115HA000 Y100aQ one-arm antibody (antibody, human IgG1, kappa, L234A L235A, N297A, name in Kabat numbering)
heavy: B3 heavy with A106Y, Y107Q
chain: B3 chain
light: B2 light 2 with E28S, T32S, H35N, P61S, A94G, F101Y
notes: one-arm antibody
B5: CE115HA000 Y100Q one-arm antibody (antibody, human IgG1, kappa, L234A L235A, N297A, name in Kabat numbering)
heavy: B3 heavy with A106Q
chain: B3 chain
light: B2 light 2 with E28S, T32S, H35N, P61S, A94G, F101Y
notes: one-arm antibody
B6: CE115HA000 Y100aD one-arm antibody (antibody, human IgG1, kappa, L234A L235A, N297A, name in Kabat numbering)
heavy: B3 heavy with A106Y, Y107D
chain: B3 chain
light: B2 light 2 with E28S, T32S, H35N, P61S, A94G, F101Y
notes: one-arm antibody
B7: CE115HA000 Y100P one-arm antibody (antibody, human IgG1, kappa, L234A L235A, N297A, name in Kabat numbering)
heavy: B3 heavy with A106P
chain: B3 chain
light: B2 light 2 with E28S, T32S, H35N, P61S, A94G, F101Y
notes: one-arm antibody
B8: CE115HA000 Y100W one-arm antibody (antibody, human IgG1, kappa, L234A L235A, N297A, name in Kabat numbering)
heavy: B3 heavy with A106W
chain: B3 chain
light: B2 light 2 with E28S, T32S, H35N, P61S, A94G, F101Y
notes: one-arm antibody
B9: CE115HA000 Y100aS one-arm antibody (antibody, human IgG1, kappa, L234A L235A, N297A, name in Kabat numbering)
heavy: B3 heavy with A106Y, Y107S
chain: B3 chain
light: B2 light 2 with E28S, T32S, H35N, P61S, A94G, F101Y
notes: one-arm antibody
B10: CE115HA000 Y100V one-arm antibody (antibody, human IgG1, kappa, L234A L235A, N297A, name in Kabat numbering)
heavy: B3 heavy with A106V
chain: B3 chain
light: B2 light 2 with E28S, T32S, H35N, P61S, A94G, F101Y
notes: one-arm antibody
B11: CE115HA000 Y100G one-arm antibody (antibody, human IgG1, kappa, L234A L235A, N297A, name in Kabat numbering)
heavy: B3 heavy with A106G
chain: B3 chain
light: B2 light 2 with E28S, T32S, H35N, P61S, A94G, F101Y
notes: one-arm antibody
B12: CE115HA000 Y100aG one-arm antibody (antibody, human IgG1, kappa, L234A L235A, N297A, name in Kabat numbering)
heavy: B3 heavy with A106Y, Y107G
chain: B3 chain
light: B2 light 2 with E28S, T32S, H35N, P61S, A94G, F101Y
notes: one-arm antibody
B13: CE115HA000 Y100D one-arm antibody (antibody, human IgG1, kappa, L234A L235A, N297A, name in Kabat numbering)
heavy: B3 heavy with A106D
chain: B3 chain
light: B2 light 2 with E28S, T32S, H35N, P61S, A94G, F101Y
notes: one-arm antibody
B14: CE115HA000 Y100aA one-arm antibody (antibody, human IgG1, kappa, L234A L235A, N297A, name in Kabat numbering)
heavy: B3 heavy with A106Y, Y107A
chain: B3 chain
light: B2 light 2 with E28S, T32S, H35N, P61S, A94G, F101Y
notes: one-arm antibody
B15: CE115HA000 Y100aL one-arm antibody (antibody, human IgG1, kappa, L234A L235A, N297A, name in Kabat numbering)
heavy: B3 heavy with A106Y, Y107L
chain: B3 chain
light: B2 light 2 with E28S, T32S, H35N, P61S, A94G, F101Y
notes: one-arm antibody
B16: CE115HA000 Y100aF one-arm antibody (antibody, human IgG1, kappa, L234A L235A, N297A, name in Kabat numbering)
heavy: B3 heavy with A106Y, Y107F
chain: B3 chain
light: B2 light 2 with E28S, T32S, H35N, P61S, A94G, F101Y
notes: one-arm antibody
B17: CE115HA000 Y100aK one-arm antibody (antibody, human IgG1, kappa, L234A L235A, N297A, name in Kabat numbering)
heavy: B3 heavy with A106Y, Y107K
chain: B3 chain
light: B2 light 2 with E28S, T32S, H35N, P61S, A94G, F101Y
notes: one-arm antibody
B18: CE115HA000 Y100S one-arm antibody (antibody, human IgG1, kappa, L234A L235A, N297A, name in Kabat numbering)
heavy: B3 heavy with A106S
chain: B3 chain
light: B2 light 2 with E28S, T32S, H35N, P61S, A94G, F101Y
notes: one-arm antibody
B19: CE115HA000 Y100K one-arm antibody (antibody, human IgG1, kappa, L234A L235A, N297A, name in Kabat numbering)
heavy: B3 heavy with A106K
chain: B3 chain
light: B2 light 2 with E28S, T32S, H35N, P61S, A94G, F101Y
notes: one-arm antibody
B20: CE115HA000 Y100L one-arm antibody (antibody, human IgG1, kappa, L234A L235A, N297A, name in Kabat numbering)
heavy: B3 heavy with A106L
chain: B3 chain
light: B2 light 2 with E28S, T32S, H35N, P61S, A94G, F101Y
notes: one-arm antibody

target: human CD137 expressed constitutively on the B cell strain HDLM-2 (human, UniProt Q07011 24-255); experiment: cell-based or functional assay
Sequence (Q07011 24-255): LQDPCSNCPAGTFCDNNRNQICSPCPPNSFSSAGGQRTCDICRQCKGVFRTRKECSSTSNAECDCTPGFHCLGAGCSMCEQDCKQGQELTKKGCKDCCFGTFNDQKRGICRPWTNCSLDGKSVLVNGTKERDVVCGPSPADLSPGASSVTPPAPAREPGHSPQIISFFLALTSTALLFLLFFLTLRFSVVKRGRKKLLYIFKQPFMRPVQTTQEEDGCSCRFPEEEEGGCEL

| Binder | Agonistic activity compared to B, antibody 6 µg/mL [%] | Agonistic activity compared to B, antibody 30 µg/mL [%] | Agonistic activity compared to Ctrl, antibody 6 µg/mL [%] | Agonistic activity compared to Ctrl, antibody 30 µg/mL [%] | hIL-6 (pg/mL), antibody 6 µg/mL [pg/mL] | hIL-6 (pg/mL), antibody 30 µg/mL [pg/mL] |
| --- | --- | --- | --- | --- | --- | --- |
| B1 | 100 | 100 | 347 | 380 | 4520 | 4340 |
| B2 | -1.27 | 6.51 | -4.41 | 24.7 | 968 | 1130 |

target: T1, CD3 epsilon homodimer protein (UniProt P07766 23-126); experiment: SPR (Biacore T200), CD3 epsilon homodimer on CM4 chip, one-arm antibody as analyte; ratio to unaltered CE115HA000;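 also: surface plasmon resonance run at 25 °C with HBS-EP+ as running buffer, CD3 epsilon homodimer attached by amine coupling, antibody passed over as analyte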
T1 construct: Construct of the homodimer protein is not described; also called CD3 (CD3 epsilon)
T1 sequence (P07766 23-126): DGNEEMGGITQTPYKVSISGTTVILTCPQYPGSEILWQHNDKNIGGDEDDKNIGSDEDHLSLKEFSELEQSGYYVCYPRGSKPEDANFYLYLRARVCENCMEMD

| Binder | KD ratio (KD value of CE115HA000/KD value of the altered form) |
| --- | --- |
| B3 | 0.92 |
| B4 | 0.51 |
| B5 | 0.77 |
| B6 | 1.2 |
| B7 | 1.3 |
| B8 | 0.96 |
| B9 | 0.59 |
| B10 | 0.92 |
| B11 | 0.97 |
| B12 | 1.01 |
| B13 | 0.63 |
| B14 | 0.66 |
| B15 | 0.57 |
| B16 | 0.98 |
| B17 | 0.79 |
| B18 | 0.7 |
| B19 | 0.93 |
| B20 | 0.67 |

From patent US20240270846A1 (published 2024)
